Data published in PMC4808631.

Target: T1, Ets-1 ΔN331 (UniProt P27577 331-440)
T1 sequence: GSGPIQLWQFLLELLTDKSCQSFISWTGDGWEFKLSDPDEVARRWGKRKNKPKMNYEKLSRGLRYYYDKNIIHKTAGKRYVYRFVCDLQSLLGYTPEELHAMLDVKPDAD
Assay: EMSA

B1: high affinity ETS binding site 27-mer duplex (dsDNA)
DNA 1: TCGACGGCCAAGCCGGAAGTGAGTGCC
DNA 2: TCGAGGCACTCACTTCCGGCTTGGCCG
  binding result: binds
